Reference: patent US20250011363A1, “OPTIMIZED SHORTENED PEPTIDE THAT BINDS TO ACETYLCHOLINE RECEPTOR, AND USE THEREOF” (SKINMED CO., LTD., priority 2021, published 2025)

What follows are binders tested against acetylcholine receptor (assay: SPR, peptide at 10 uM on acetylcholine receptor).

Binder | Binding affinity (RU)
RNTVR [5mer-969] | 27 RU
KPCVK [5mer-670] | 23 RU
KYMNR [5mer-970] | 33 RU
KMNAK [5mer-671] | 21 RU
KMTGK [5mer-971] | 12 RU
KHAPK [5mer-672] | 12 RU
KYAKR [5mer-972] | 14 RU
RISPR [5mer-673] | 14 RU
RYWAR [5mer-973] | 12 RU
KETHR [5mer-674] | 22 RU
RHMMR [5mer-974] | 26 RU
RKPGR [5mer-675] | 31 RU
RFAHK [5mer-975] | 18 RU
RTMFR [5mer-676] | 18 RU
RETNR [5mer-976] | 16 RU
RCEMR [5mer-677] | 15 RU
KNMIR [5mer-977] | 16 RU
KYMGR [5mer-678] | 23 RU
RYDHK [5mer-978] | 30 RU
KKTVK [5mer-679] | 21 RU

Binder | Binding affinity (RU)
RHHMK [5mer-979] | 23 RU
RFTER [5mer-680] | 21 RU
RKPHR [5mer-980] | 33 RU
KDTMR [5mer-681] | 18 RU
KNDKK [5mer-981] | 33 RU
KPNVK [5mer-682] | 31 RU
KFMHK [5mer-982] | 12 RU
KYPDK [5mer-683] | 32 RU
RTTGR [5mer-983] | 23 RU
KCAER [5mer-684] | 27 RU
KNAHK [5mer-984] | 11 RU
RNDIK [5mer-685] | 21 RU
RDPKR [5mer-985] | 17 RU
RFNIR [5mer-686] | 18 RU
RPMDK [5mer-986] | 12 RU
RMEIR [5mer-687] | 22 RU
RAHWR [5mer-987] | 22 RU
RPHFK [5mer-688] | 31 RU
RCKWR [5mer-988] | 17 RU
RFSDK [5mer-689] | 20 RU

Binder | Binding affinity (RU)
RCTAR [5mer-989] | 31 RU
RAEIK [5mer-690] | 12 RU
KEEPK [5mer-990] | 12 RU
KEWEK [5mer-691] | 16 RU
RPEFR [5mer-991] | 24 RU
RDHWK [5mer-692] | 15 RU
RNDKK [5mer-992] | 15 RU
RPSKK [5mer-693] | 17 RU
KEKFR [5mer-993] | 27 RU
KNNAR [5mer-694] | 24 RU
KAWVR [5mer-994] | 26 RU
KKPDR [5mer-695] | 26 RU
KFTDK [5mer-995] | 18 RU
RCEHR [5mer-696] | 11 RU
RMTKK [5mer-996] | 32 RU
KASKK [5mer-697] | 25 RU
RYPHR [5mer-997] | 30 RU
KFDWK [5mer-698] | 12 RU
RCTAK [5mer-998] | 18 RU

What follows are binders tested against acetylcholine receptor (assay: SPR, peptide at 10 uM, acetylcholine receptor immobilized on chip).

Binder | Binding affinity (RU)
RFCFK [5mer-601] | 13 RU
KCTNR [5mer-901] | 30 RU
KMSVR [5mer-602] | 12 RU
REDPK [5mer-902] | 23 RU
RKEPK [5mer-603] | 27 RU
RHHKR [5mer-903] | 21 RU
RKEGK [5mer-604] | 13 RU
KPDPK [5mer-904] | 23 RU
RECFK [5mer-605] | 22 RU
RPSPR [5mer-905] | 30 RU
RIHWK [5mer-606] | 25 RU
RKHAK [5mer-906] | 31 RU
RIEER [5mer-607] | 25 RU
KDSVR [5mer-907] | 18 RU
RDSER [5mer-608] | 20 RU
RCHFK [5mer-908] | 25 RU
RKTMK [5mer-609] | 32 RU
RINVK [5mer-909] | 33 RU
KCDDK [5mer-610] | 16 RU
RPCFR [5mer-910] | 17 RU
